In the nanobody polyreactivity screen of Harvey et al. (2022):

Experiment: yeast display, Sf9 membrane polyspecificity reagent, FACS + sequencing; frameworks hold sequencing errors
In short: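 Galactose-induced (36–48 hours) yeast carrying a synthetic nanobody display library were exposed to 10% biotinylated, detergent-solubilized Sf9 membrane reagent at 4 °C for 1 hour. FACS followed streptavidin microbead enrichment, using low and high (top ~1%) gates for expression (anti-HA) and reagent binding (streptavidin). Colony PCR, MiSeq 2 × 250 sequencing and CDR-length filtering followed. Labels for polyreactivity reflect the gate of origin.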

Sequence	polyreactivity (PSR sort gate)
QVQLEESGGGLVQAGGSLRLSCAASGFTFSLYGMGWYRQAPGKERELVAAIRSGGSTNYADSVKGRFTISRDNAKNTVYLQMNSLKPEDTAVYYCATDIHSVNNNRDKHDYDYWGQGTLVTVSS	low polyreactivity
QVQLEESGGGLVQAGGSLRLSCAASGFTFSTNSMGWYRPAPGKERELVAAISRGGSTNYADSVKGRFTISRDNAKNTVYLQMNSLKPEDTAVYYCNAYQSPDEEEYYWGQGTQVTVSS	low polyreactivity
QVQLEESGGGLVQAGGSLRLSCAASGFTFYRDTMGGYRQAPGKERELFAAITRDGSTYYADSVKGRFTISRDNAKYTVSLQLNSLKPEDTAVYYWNARGTVPWYGYDYWGQGTQVNVSS	high polyreactivity
QVQLEESGGGLVQAGGSLRLSCAASGFTFYYYAMGWYRQAPGKERELVAAINTSGGSTYYADSVKGRFTNSRDNAKNTVYLQMNSLKPVDTAVYYCAAVDGFWTQYPRMGYWGQGTQVTVSS	high polyreactivity
QVQLEESGGGLVQAGGSLRLSCAASGGTFGQYTMGWYRQAPGKERELVAAISTRGGSTNYADSVKGRFTISRDNAKNTVYLQMNSLKPEDTAVYYCAAKDKGRYYENVGRRGLDYWGQGTQVTVSS	high polyreactivity
QVQLEESGGGLVQAGGSLRLSCAASGGTFYYSPMGWDREPPGKERELVAAIRWRGGNTYYADSVKGRFTISLDNAKNTVYLQMNSVKPEDTAVYYCAAQTHDYNRYVGTTAYDYWGQGTQVTVSS	low polyreactivity
QVQLEESGGGLVQAGGSLRLSCAASGIIFGRYAMGWYRQAPGKQRELVAAITSGGSTSYADSVKGRFTISRDNAKNTVYLQMNSLKPEDTAVYYCAVVFVWGWPGYYWGQGTQVTVSS	high polyreactivity
QVQLEESGGGLVQAGGSLRLSCAASGIIFRLYGMGWYRQAPGKEREFVATITWRGGRTNYADSVKGRFTISRDNAKNTVYLQMNSLTPEDTAVYYCANVVRYARSNEYDSSGQGTQVTVSS	low polyreactivity
QVQLEESGGGLVQAGGSLRLSCAASGIIIVRNAMGWYRQAPGKEREFVAAISSSGGSTYYADSVKGRFTISRDNGKNTVYLQMNSLNPEDTAVYNCNARHRQWARGYWGQGTQVTVSS	high polyreactivity
QVQLEESGGGLVQAGGSLRLSCAASGILRDNAMGWYRQAPGKERELVATINGDGSTYADSVKGRFTISRDNAKNTVYLQMNSLKPEDTAVYYCAAPFTTTFDYWGQGTQVTVSS	low polyreactivity
QVQLEESGGGLVQAGGSLRLSCAASGITFDFNAKGWYRQAPGTERELVAAIRNRGGSTYYADSVKGRFTISRDNAKNTVYLQMHSLKPVDTAVYYCNVDLWPFVYSWWSYDYWGQGTQVTVSS	high polyreactivity
QVQLEESGGGLVQAGGSLRLSCAASGITFSRYAMGWYRQATGKERELVARISSSGGSTNYADSVKGRFTISRDNAKNTVYLQMNSLKPEDSAVYYCAVATRGKVARRVTFDYWGQGTQVTVSS	high polyreactivity
QVQLEESGGGLVQAGGSLRLSCAASGLIFGKYAMGWYRTAPGKERELVAAITSSGGGTYYADSVKGRFTISRDNAKNTVYLQMNSLKPEDTAVYYCSTGPDPKYDYWGQGTQVTVSS	high polyreactivity
QVQLEESGGGLVQAGGSLRLSCAASGLNIAVYTMGWYRQAPGKERELVAAITRRSTRTYYADSVKGRFTISRDNALISVFLQMNSLKPEDTAVYYCAADRVSSGAAFEFWGQGTQVTVSS	low polyreactivity
QVQLEESGGGLVQAGGSLRLSCAASGLTFPWYAMGWYRPATGKEREFVAAITGGGSTYYADSVKGRFTISRDNAKNTVYLQMNSLKPEDTAVYYCNTDVPYGLDVSDTIDYYYWGQGTLVTVSS	low polyreactivity
QVQLEESGGGLVQAGGSLRLSCAASGNIFESYGMGWYRQAPGKERELVATINTSSGSTYYADSVKGRFTISRDNAKNTVYLQMNSLKPEDTAVYYCAAEWYPYPWGYGYWGQGTQVTVSS	low polyreactivity

Sequence	polyreactivity (PSR sort gate)
QVQLEESGGGLVQAGGSLRLSCAASGPIFPGYVMGWYRQAPGKERELVAAISVRGGSTYYADSVKGRFTISRDNAKNTVYLQMNSLKPEDTAVYYCAADSYYYQGYRRYNYDYWGQGTQVTVSS	high polyreactivity
QVQLEESGGGLVQAGGSLRLSCAASGRIFAVNAMGGYRQAPGKERELVAAINGGGSTNYADSVKGRFTLSRDNAKNTVYLQMNSLKPADTAVYYCAADVGWRSQTRGYYWGQGTQVTVSS	high polyreactivity
QVQLEESGGGLVQAGGSLRLSCAASGRIFDDNAMGWYRPAPGKERELVAAISSSGGSTYYADSVKGRFTISRDNAKNTVYLQMNSLKPEDTAVYYCNAGRYIRAFWYAHGYDYWGQGTQVTVSS	high polyreactivity
QVQLEESGGGLVQAGGSLRLSCAASGRIFIKNAMGWYRQAPGKVRELVAAISARGGSTYYADSVKGRFTISRDIAKNTVYLEMNSLKPEDTAVYDCAVDVYEPRYRRPLHHDYWGQGTQVTVSS	low polyreactivity
QVQLEESGGGLVQAGGSLRLSCAASGRIFLTYAMGWYRQAPGKERELVAAIRSRSGTTYYADSVKGRFTISRDNAKNTVYLQMNSLKPEDTAVYYCAAGGKSRSYYWGQGTQVTVSS	high polyreactivity
QVQLEESGGGLVQAGGSLRLSCAASGRIFLYNAMGWYRQAPGKERELVAAISRSGGSTYYADSVKGRFTISRDNAKNTVYLQMNSLKPEDTAVYYCAVGSPYGCRAPWVRGGDYWGQGTQVTVSS	high polyreactivity
QVQLEESGGGLVQAGGSLRLSCAASGRIFQYYDMGWYRPATGKERELVAGIRTNGSSTYYADSVKGRFTISRDNAKNTVYLQMNSLKPEDSAVYYCAARHYRYLRQYDYWGQGTQVTVSS	low polyreactivity
QVQLEESGGGLVQAGGSLRLSCAASGRIFSRNARGWYRPSPGKERELVAASSSGGGSTYYADSVKGRFTISRDNAKNTVYLLMNSLKPEDTAVYYCAARTRITYDWGQGTQVTVSS	low polyreactivity
QVQLEESGGGLVQAGGSLRLSCAASGRIFTYYGMGWYRQAPGKERELVAAITRSGGSTRYADSVKGRFTISRDNAKNTVYLQMNSLKPEDTAVYFCAKTHYGVQRLDSCGQGTQVTVSS	low polyreactivity
QVQLEESGGGLVQAGGSLRLSCAASGRIFVIYAMGWYRQAPGKERELVAVITSGGRTYYADSVNGRFTISRDNAKNTVYLQMNRLKPEDTAVYYCAARTGRGFEYWGQGTQVTVSS	high polyreactivity
QVQLEESGGGLVQAGGSLRLSCAASGRIFYEYAMGWYRQAPGKERELVADISSGDDTYYADSVKGRFTISRDNAKNTVYLQMNSLKPEDTAVYYCAADDGGSGFIYDYWGQGTQVTVSS	low polyreactivity
QVQLEESGGGLVQAGGSLRLSCAASGRISGFNAMGWYRKAPGKEREFVAAISYRGGYTYADSVKGRFTISRDNAKNTVYLQMNSLKPEDTAVYYCNALWRGHGRYNYWGQGTQVNVSS	low polyreactivity
QVQLEESGGGLVQAGGSLRLSCAASGRSFWPNAMGWYRQAPGKERELVAAISSGGSTNYADSVKVRFTISRDNAKNTVYLQMNSLKPEDTAVYYCASDGQGDKYDYYGHNFWGQGTQVTVSS	low polyreactivity
QVQLEESGGGLVQAGGSLRLSCAASGRSFYGNAMGWYRQAPGKERELVAASSSRSSSTSYADSVKGRFTISRANAKNTVYLLMNSLKPEDTAVYYCATRYGSRTWYGYNYWGQATQVTVSS	high polyreactivity
QVQLEESGGGLVQAGGSLRLSCAASGRTFGRYDMGWYRQAPGKEREFVAAISTRGSRTYYADSVKGRFTISRDNAKNTVYLQMNSLKAEDTAVYYCAAEYLPRPYSWIYYYWGQGTQVTVSS	high polyreactivity
QVQLEESGGGLVQAGGSLRLSCAASGRTFRYYAMGWSRQAPGKERELVAAISWSGSSTYYADSVKGRFTISRDNAKNTVYLQMNSLKAEDTAVYYCNAKGVRGKYFDYSRVSAYDYWGQGTQVTVSS	low polyreactivity
